To fix the notation:
T1: Csm2;Psy3;Shu1;Shu2 (Saccharomyces cerevisiae?;Saccharomyces …, UniProt P40465;Q12318;P38751;P38957 1-213;1-242;1-150;1-223, |||)
T1 sequence 1: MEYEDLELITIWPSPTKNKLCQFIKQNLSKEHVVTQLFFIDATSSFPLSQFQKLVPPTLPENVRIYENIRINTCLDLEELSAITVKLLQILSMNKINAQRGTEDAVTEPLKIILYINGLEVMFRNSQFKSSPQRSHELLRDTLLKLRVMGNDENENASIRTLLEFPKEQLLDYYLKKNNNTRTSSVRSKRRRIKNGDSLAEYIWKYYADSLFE
T1 sequence 2: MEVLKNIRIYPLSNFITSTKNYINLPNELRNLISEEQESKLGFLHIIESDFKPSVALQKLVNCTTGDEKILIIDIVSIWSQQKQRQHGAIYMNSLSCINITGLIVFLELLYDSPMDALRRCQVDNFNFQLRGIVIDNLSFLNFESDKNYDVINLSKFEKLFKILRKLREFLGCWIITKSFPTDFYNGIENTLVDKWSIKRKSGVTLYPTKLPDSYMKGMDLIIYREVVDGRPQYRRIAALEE
T1 sequence 3: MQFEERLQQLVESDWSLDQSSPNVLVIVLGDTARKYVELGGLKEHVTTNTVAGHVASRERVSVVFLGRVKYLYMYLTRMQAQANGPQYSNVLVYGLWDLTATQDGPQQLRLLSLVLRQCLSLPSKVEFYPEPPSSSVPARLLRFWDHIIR
T1 sequence 4: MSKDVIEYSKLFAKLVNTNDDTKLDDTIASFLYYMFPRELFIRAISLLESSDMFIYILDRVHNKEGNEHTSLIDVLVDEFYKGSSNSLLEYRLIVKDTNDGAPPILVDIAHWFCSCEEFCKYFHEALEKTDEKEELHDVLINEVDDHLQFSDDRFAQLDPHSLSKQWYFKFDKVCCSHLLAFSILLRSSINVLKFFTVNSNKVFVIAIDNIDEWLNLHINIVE

T2: Csm2;Psy3 (Saccharomyces cerevisiae?;Saccharomyces …, UniProt P40465;Q12318 1-213;1-242, |)
T2 sequence 1: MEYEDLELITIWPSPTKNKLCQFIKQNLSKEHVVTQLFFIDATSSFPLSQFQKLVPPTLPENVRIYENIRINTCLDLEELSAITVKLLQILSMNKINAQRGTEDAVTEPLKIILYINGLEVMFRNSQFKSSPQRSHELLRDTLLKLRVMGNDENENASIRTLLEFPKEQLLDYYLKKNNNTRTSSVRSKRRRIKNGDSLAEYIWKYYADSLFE
T2 sequence 2: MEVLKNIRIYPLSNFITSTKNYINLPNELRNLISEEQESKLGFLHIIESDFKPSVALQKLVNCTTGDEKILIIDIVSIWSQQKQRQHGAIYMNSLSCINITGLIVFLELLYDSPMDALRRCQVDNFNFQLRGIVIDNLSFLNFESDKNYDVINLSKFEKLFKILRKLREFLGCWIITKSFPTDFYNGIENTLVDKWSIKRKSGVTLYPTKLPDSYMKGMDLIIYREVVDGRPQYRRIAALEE

B1: ss60 (ssDNA)
DNA: TTTTTTTTTTTTTTTTTTTTTTTTTTTTTTCTTGACAAGCTTGCGCACTTAGGCCTCTAG
B2: ss26 (ssDNA)
DNA: ACTGCCCTTACAGCACAGCGGTTTTT
B3: ds26 (dsDNA)
DNA 1: ACTGCCCTTACAGCACAGCGGTTTTT
DNA 2: AAAAACCGCTGTGCTGTAAGGGCAGT
B4: ds21 (dsDNA)
DNA 1: ACTTACAGCACAGCGGTTTTT
DNA 2: AAAAACCGCTGTGCTGTAAGT
B5: ss21 (ssDNA)
DNA: ACTTACAGCACAGCGGTTTTT
B6: Fork (5nt) (dsDNA)
DNA 1: ACTGCCCTTACAGCACAGCGGTTTTT
DNA 2: TTTTTCCGCTGTGCTGTAAGGGCAGT
B7: Fork (20nt) (dsDNA)
DNA 1: TTTTTTTTTTTTTTTTTTTTCTTGACAAGCTTGCGCACT
DNA 2: AGTGCGCAAGCTTGTCAAGGCACTTTTTTTTTTTTTTTT
B8: ss39 (ssDNA)
DNA: TTTTTTTTTTTTTTTTTTTTCTTGACAAGCTTGCGCACT
B9: 3'-overhang (20nt) (dsDNA)
DNA 1: CTTGACAAGCTTGCGCACT
DNA 2: AGTGCGCAAGCTTGTCAAGGCACTTTTTTTTTTTTTTTT
B10: 5'-overhang (20nt) (dsDNA)
DNA 1: TTTTTTTTTTTTTTTTTTTTCTTGACAAGCTTGCGCACT
DNA 2: AGTGCGCAAGCTTGTCAAG
B11: Fork (10nt) (dsDNA)
DNA 1: ACTGCCCTTACAGCACAGCGGTTTTTTTTTT
DNA 2: TTTTTTTTTTCCGCTGTGCTGTAAGGGCAGT
B12: 3'-overhang (10nt) (dsDNA)
DNA 1: ACTGCCCTTACAGCACAGCGGTTTTTTTTTT
DNA 2: CCGCTGTGCTGTAAGGGCAGT
B13: ss31 (ssDNA)
DNA: ACTGCCCTTACAGCACAGCGGTTTTTTTTTT
B14: 3'-overhang (5nt) (dsDNA)
DNA 1: ACTGCCCTTACAGCACAGCGGTTTTT
DNA 2: CCGCTGTGCTGTAAGGGCAGT
B15: ds39 (dsDNA)
DNA 1: TTTTTTTTTTTTTTTTTTTTCTTGACAAGCTTGCGCACT
DNA 2: AGTGCGCAAGCTTGTCAAGAAAAAAAAAAAAAAAAAAAA

The values that follow come from doi:10.1101/2024.04.22.590616.

The target of one data set is T1, Csm2;Psy3;Shu1;Shu2. In words: fluorescence polarization.
As for B1, the Kd is 2370 ± 130 nM.

For the molecule B2, binding was put at a Kd of 3540 ± 240 nM. This Kd and that of the molecule before are within 1.5-fold of each other.

With B3, the Kd turned out to be 7230 ± 140 nM.

As for B4, binding was characterised by a dissociation constant (Kd) of 6210 ± 190 nM. The Kd values of the last two molecules are within 1.5-fold of each other.

B5 returned a Kd of 3430 ± 160 nM.

B6 registered a Kd of 4080 ± 190 nM. This Kd and that of the molecule before are within 1.5-fold of each other.

In the case of B7, binding was put at a Kd of 2060 ± 130 nM.

With B8, the Kd was 2760 ± 80 nM.

B9 displayed a Kd of 2820 ± 190 nM.

B10 yielded a Kd of 2440 ± 200 nM.

As for B11, the Kd is 5840 ± 320 nM.

Molecule B12 yielded a Kd of 4500 ± 120 nM. This Kd and that of the molecule before are within 1.5-fold of each other.

As for B13, the Kd stood at 3310 ± 70 nM.

In turn, B14 had a Kd of 4860 ± 280 nM.

For the next data set, the target named is T2, Csm2;Psy3. Nature of the data set: fluorescence polarization.
The molecule B7 gave a Kd of 1350 ± 60 nM.

Take B15: the Kd was 1490 ± 130 nM.

With B8, the Kd is 1650 ± 180 nM.

For B9, binding was characterised by a dissociation constant (Kd) of 1920 ± 280 nM.

B10 registered a Kd of 1180 ± 100 nM.

The next data set deals with T1, Csm2;Psy3;Shu1;Shu2. In words: fluorescence polarization. The source holds these as a separate data set.
B15 gave a Kd of 7400 ± 510 nM.

The target in the next data set is T1, Csm2;Psy3;Shu1;Shu2. In words: fluorescence polarization. The source holds these as a separate data set.
With B1, the Kd was 2400 ± 230 nM.

The molecule B7 gave a Kd of 860 ± 70 nM.

Consider B15, for which the Kd was 6850 ± 490 nM.

Consider B8, for which the Kd was 3190 ± 270 nM.

B9 showed a Kd of 2530 ± 170 nM.

Turning to B10, the Kd turned out to be 1580 ± 160 nM.

Another data set addresses T2, Csm2;Psy3. Nature of the data set: fluorescence polarization. This is another data set of the same source.
Molecule B7 came in with a Kd of 740 ± 50 nM.

B15 came in with a Kd of 1540 ± 80 nM.

Molecule B8 gave an equilibrium dissociation constant (Kd) of 1490 ± 180 nM.

Consider B9, for which the Kd turned out to be 1600 ± 130 nM.

B10 had a Kd of 430 ± 70 nM. This Kd lies about 3.7-fold lower than the previous one.

In another data set the target is T1, Csm2;Psy3;Shu1;Shu2. Nature of the data set: fluorescence polarization. The source holds these as a separate data set.
B1 had a Kd of 2370 ± 290 nM.

Take B7: the affinity, expressed as Kd, was 1030 ± 120 nM.

For the molecule B15, the Kd came to 7410 ± 610 nM.

On to B8, for which binding was put at a Kd of 2770 ± 250 nM.

As for B10, binding was put at a Kd of 1150 ± 110 nM. Against the preceding molecule, the Kd is about 2.4-fold lower.

The next data set concerns the target T2, Csm2;Psy3. Nature of the data set: fluorescence polarization. This is another data set of the same source.
For B7, binding was put at a Kd of 750 ± 70 nM.

In the case of B15, binding was put at a Kd of 1450 ± 130 nM.

Regarding B8, the Kd was determined as 1320 ± 120 nM.

B9 came in with a Kd of 1270 ± 120 nM.

Take B10: the Kd was found to be 950 ± 120 nM. The Kd values of the last two molecules are within 1.5-fold of each other.

Another data set has as its target T1, Csm2;Psy3;Shu1;Shu2. In words: fluorescence polarization. This is another data set of the same source.
With B1, binding was put at a Kd of 2010 ± 260 nM.

In turn, B7 came in with a Kd of 970 ± 100 nM.

In the case of B15, the Kd turned out to be 5800 ± 400 nM.

Consider B8, for which binding was put at a Kd of 2370 ± 220 nM.

Regarding B9, binding was characterised by a dissociation constant (Kd) of 2710 ± 220 nM.

For B10, the Kd is 2420 ± 220 nM.

In a further data set the target is T2, Csm2;Psy3. Nature of the data set: fluorescence polarization. This is another data set of the same source.
Regarding B7, binding was characterised by a dissociation constant (Kd) of 780 ± 50 nM.

For B15, the Kd was determined as 1460 ± 120 nM.

B8 registered a Kd of 1980 ± 200 nM.

For the molecule B9, the affinity, expressed as Kd, was 680 ± 50 nM.

B10 came in with a Kd of 760 ± 90 nM.
